The text below walks through data of patent US20110212094A1 (AbbVie / Abbott, published 2011).

The term Kd denotes the equilibrium constant for the complex coming apart. The term koff denotes the rate constant with which the complex falls apart. Broadly, the kon is the rate constant with which the complex forms.

For assay [1], the target named is T1, Recombinant Human TNF-α/TNFSF1A (human, UniProt P01375 77-233).
T1 construct: Bought reagent for Biacore; also called huTNFα
Put plainly: Biacore SPR. As to the method:
(§1) The BIACORE assay (Biacore, Inc, Piscataway, N.J.) determines the affinity of antibodies or DVD-Ig with kinetic measurements of on-rate and off-rate constants. Binding of antibodies or DVD-Ig to a target antigen (for example, a purified recombinant target antigen) is determined by surface plasmon resonance-based measurements with a Biacore® 1000 or 3000 instrument (Biacore® AB, Uppsala, Sweden) using running HBS-EP (10 mM HEPES [pH 7.4], 150 mM NaCl, 3 mM EDTA, and 0.005% surfactant P20) at 25° C. All chemicals are obtained from Biacore® AB (Uppsala, Sweden) or otherwise from a different source as described in the text. For example, approximately 5000 RU of goat anti-mouse IgG, (Fcγ), fragment specific polyclonal antibody (Pierce Biotechnology Inc, Rockford, Ill.) diluted in 10 mM sodium acetate (pH 4.5) is directly immobilized across a CM5 research grade biosensor chip using a standard amine coupling kit according to manufacturer's instructions and procedures at 25 μg/ml. Unreacted moieties on the biosensor surface are blocked with ethanolamine. Modified carboxymethyl dextran surface in flowcell 2 and 4 is used as a reaction surface. Unmodified carboxymethyl dextran without goat anti-mouse IgG in flow cell 1 and 3 is used as the reference surface. For kinetic analysis, rate equations derived from the 1:1 Langmuir binding model are fitted simultaneously to association and dissociation phases of all eight injections (using global fit analysis) with the use of Biaevaluation 4.0.1 software. Purified antibodies or DVD-Ig are diluted in HEPES-buffered saline for capture across goat anti-mouse IgG specific reaction surfaces. Antibodies or DVD-Ig to be captured as a ligand (25 μg/ml) are injected over reaction matrices at a flow rate of 5 μl/min. The association and dissociation rate constants, kₘ (M⁻¹s⁻¹) and koff (s⁻¹) are determined under a continuous flow rate of 25 μl/min. Rate constants are derived by making kinetic binding measurements at different antigen concentrations ranging from 10-200 nM. The equilibrium dissociation constant (M) of the reaction between antibodies or DVD-Igs and the target antigen is then calculated from the kinetic rate constants by the following formula: KD=koff/kₒₙ. Binding is recorded as a function of time and kinetic rate constants are calculated.
For orientation: In SPR one partner is held on a chip, and binding of the other changes the refractive index at the surface.

The target of assay [2] is T2, Recombinant Human β-NGF (human, UniProt P01138 122-239, limits assumed).
T2 construct: Bought reagent used in the Biacore analyses
Put plainly: Biacore SPR. As to the method: as §1

In assay [3] the target is NGF (Neuroscreen-1 bioassay). Nature of the assay: cell-based or functional assay.
For assay [4], the target named is T1, Recombinant Human TNF-α/TNFSF1A. Nature of the assay: cell-based or functional assay.
For assay [5], the target named is T3, Recombinant Human SOST (human, UniProt Q9BQB4 24-213).
T3 construct: R&D reagent in Biacore; also called sclerostin; Human sclerostin (Abbott PR-1261069)
T3 sequence (looked up): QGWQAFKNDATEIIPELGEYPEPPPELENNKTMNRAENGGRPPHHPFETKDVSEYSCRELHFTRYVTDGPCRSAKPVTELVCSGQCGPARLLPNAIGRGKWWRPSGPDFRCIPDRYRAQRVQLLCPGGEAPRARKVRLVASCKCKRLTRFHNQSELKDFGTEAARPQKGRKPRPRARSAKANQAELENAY
Put plainly: Biacore SPR. As for the experimental part:
as §1

T1 sequence (P01375 77-233 limits assumed): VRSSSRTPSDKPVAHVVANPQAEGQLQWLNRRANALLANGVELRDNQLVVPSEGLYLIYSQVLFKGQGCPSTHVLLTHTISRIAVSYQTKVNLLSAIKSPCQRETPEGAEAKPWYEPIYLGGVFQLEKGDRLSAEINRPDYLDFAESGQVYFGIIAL
T2 sequence (P01138 122-239 limits assumed): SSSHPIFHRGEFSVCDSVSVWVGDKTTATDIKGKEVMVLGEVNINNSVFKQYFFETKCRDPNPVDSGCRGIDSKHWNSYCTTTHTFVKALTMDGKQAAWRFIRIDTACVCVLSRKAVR

B1: DVD1233 (bispecific antibody, human IgG1, kappa)
heavy: not shown
light: DIQMTQSPSSLSASVGDRVTITCRASQSISNNLNWYQQKPGKAPKLLIYYTSRFHSGVPSRFSGSGSGTDFTFTISSLQPEDIATYYCQQEHTLPYTFGQGTKLEIKRTVAAPDIVMTQSHKFMSTTVGDRVSITCKASQAVSSAVAWYQQKPGQSPKLLIYWASTRHTGVPDRFTGSGSVTDFTLTIHNLQAEDLALYYCQQHYSTPFTFGSGTKLEIKRTVAAPSVFIFPPSDEQLKSGTASVVCLLNNFYPREAKVQWKVDNALQSGNSQESVTEQDSKDSTYSLSSTLTLSKADYEKHKVYACEVTHQGLSSPVTKSFNRGEC
notes: constant regions from vectors V1/V2; also called DVD1233H; DVD1233L
Consider B1, for which, in assay [1], the Kd was 0.115 nM, the off-rate constant (koff) came out at 2.82e-05 s⁻¹ and the association rate constant (kon) worked out at 244000 M⁻¹ s⁻¹. In addition, in assay [2], the dissociation constant Kd stood at 0.0217 nM, the koff is 1.82e-05 s⁻¹ and the kon came to 840000 M⁻¹ s⁻¹. Also, the “N-Terminal VD NGF Inhibition Assay EC50 pM (ERK1/2 phosphorylation, Neuroscreen-1 cells)” value in assay [3] was 62 pM. Moreover, the “C-terminal VD TNFα Neutralization Assay EC50 nM (L929 cells)” value in assay [4] came out at 42.4 nM.

B2: DVD1248 (bispecific antibody, human IgG1, kappa)
heavy: not shown
light: DIQMTQSPSSLSASVGDRVTITCRASQGIRIDLGWYQQKPGKAPKRLIYAASTLQSGVPSRFSGSGSGTEFIFTISSLQPEDFASYYCLQHKSYPLTFGGGTKVEIKRTVAAPDVQMIQSPSSLSASLGDIVTMTCQASQGTSINLNWFQQKPGKAPKLLIYGSSNLEDGVPSRFSGSRYGTDFTLTISSLEDEDLATYFCLQHSYLPYTFGGGTKLEIKRTVAAPSVFIFPPSDEQLKSGTASVVCLLNNFYPREAKVQWKVDNALQSGNSQESVTEQDSKDSTYSLSSTLTLSKADYEKHKVYACEVTHQGLSSPVTKSFNRGEC
notes: constant regions from vectors V1/V2; also called DVD1248H; DVD1248L
On to B2, for which, in assay [1], the equilibrium dissociation constant (Kd) was 0.021 nM, the koff was determined as 5.94e-05 s⁻¹ and the on-rate constant (kon) was 2.83e+06 M⁻¹ s⁻¹. In assay [5], the dissociation constant (Kd) stood at 0.0546 nM, the koff stood at 0.00039 s⁻¹ and the kon turned out to be 7.14e+06 M⁻¹ s⁻¹. Moreover, in assay [4], the “N-terminal VD TNFα Neutralization Assay EC50 nM (L929 cells)” value was found to be 0.006 nM.

B3: DVD1251 (bispecific antibody, human IgG1, kappa)
heavy: not shown
light: DIQMTQSPSSLSASVGDRVTITCRASQSISNNLNWYQQKPGKAPKLLIYYTSRFHSGVPSRFSGSGSGTDFTFTISSLQPEDIATYYCQQEHTLPYTFGQGTKLEIKRTVAAPDIQMTQSPSSLSASVGDRVTITCRASQGIRIDLGWYQQKPGKAPKRLIYAASTLQSGVPSRFSGSGSGTEFIFTISSLQPEDFASYYCLQHKSYPLTFGGGTKVEIKRTVAAPSVFIFPPSDEQLKSGTASVVCLLNNFYPREAKVQWKVDNALQSGNSQESVTEQDSKDSTYSLSSTLTLSKADYEKHKVYACEVTHQGLSSPVTKSFNRGEC
notes: constant regions from vectors V1/V2; also called DVD1251H; DVD1251L
B3: in assay [1], the dissociation constant (Kd) is 0.0894 nM, the koff turned out to be 5.73e-05 s⁻¹ and the kon was determined as 641000 M⁻¹ s⁻¹. Also, in assay [2], the Kd was determined as 0.0139 nM, the koff worked out at 1.17e-05 s⁻¹ and the kon is 842000 M⁻¹ s⁻¹. Also, the “N-Terminal VD NGF Inhibition Assay EC50 pM (ERK1/2 phosphorylation, Neuroscreen-1 cells)” value in assay [3] turned out to be 95 pM. Moreover, the “C-terminal VD TNFα Neutralization Assay EC50 nM (L929 cells)” value in assay [4] was determined as 8.02 nM.

B4: DVD1230 (bispecific antibody, human IgG1, kappa)
heavy: not shown
light: EIVLTQSPATLSLSPGERATLSCRASQSVYSYLAWYQQKPGQAPRLLIYDASNRATGIPARFSGSGSGTDFTLTISSLEPEDFAVYYCQQRSNWPPFTFGPGTKVDIKRTVAAPDVQMIQSPSSLSASLGDIVTMTCQASQGTSINLNWFQQKPGKAPKLLIYGSSNLEDGVPSRFSGSRYGTDFTLTISSLEDEDLATYFCLQHSYLPYTFGGGTKLEIKRTVAAPSVFIFPPSDEQLKSGTASVVCLLNNFYPREAKVQWKVDNALQSGNSQESVTEQDSKDSTYSLSSTLTLSKADYEKHKVYACEVTHQGLSSPVTKSFNRGEC
notes: constant regions from vectors V1/V2; also called DVD1230H; DVD1230L
Consider B4, for which, in assay [1], the Kd amounted to 0.132 nM, the koff turned out to be 0.000223 s⁻¹ and the kon was found to be 1.69e+06 M⁻¹ s⁻¹. In assay [5], the equilibrium dissociation constant (Kd) was 4.74 nM, the koff stood at 0.00029 s⁻¹ and the on-rate constant (kon) was 61100 M⁻¹ s⁻¹. In assay [4], the “N-terminal VD TNFα Neutralization Assay EC50 nM (L929 cells)” value worked out at 1.05 nM.

B5: AB218 (antibody, human IgG1, kappa, V domains shown)
VH: EVQLVESGGGLIQPGGSLRLSCAASGFTVSRNYMSWVRQAPGKGLEWVSVIYSGDRTYYADSVKGRFTISRDNSKNTLYLQMNSLRAEDTAVYYCARGEGGFDYWGQGTLVTVSS
VL: EIVMTQSPATLSVSPGERATLSCRASQSVSSNLAWYQQKPGQAPRLLIHGASIRATGLPARFSGSGSGTEFTLTISSLQSEDFAVYYCQQYNYWWTFGQGTKVEIKR
notes: Parent anti-TNF antibody; also called AB218VH
As to B5, in assay [1], the Kd is 0.0288 nM, the koff was found to be 5.15e-05 s⁻¹ and the kon was 1.79e+06 M⁻¹ s⁻¹. Further, in assay [4], the “TNFα Neutralization Assay EC50 nM (L929 cells)” value was 0.0345 nM.

B6: DVD1249 (bispecific antibody, human IgG1, kappa)
heavy: not shown
light: DVQMIQSPSSLSASLGDIVTMTCQASQGTSINLNWFQQKPGKAPKLLIYGSSNLEDGVPSRFSGSRYGTDFTLTISSLEDEDLATYFCLQHSYLPYTFGGGTKLEIKRTVAAPDIQMTQSPSSLSASVGDRVTITCRASQGIRIDLGWYQQKPGKAPKRLIYAASTLQSGVPSRFSGSGSGTEFIFTISSLQPEDFASYYCLQHKSYPLTFGGGTKVEIKRTVAAPSVFIFPPSDEQLKSGTASVVCLLNNFYPREAKVQWKVDNALQSGNSQESVTEQDSKDSTYSLSSTLTLSKADYEKHKVYACEVTHQGLSSPVTKSFNRGEC
notes: constant regions from vectors V1/V2; also called DVD1249H; DVD1249L
As to B6, in assay [1], the Kd turned out to be 0.389 nM, the koff amounted to 0.000253 s⁻¹ and the kon came to 649000 M⁻¹ s⁻¹. Further, in assay [5], the Kd amounted to 0.017 nM, the koff was found to be 0.000159 s⁻¹ and the kon was 9.42e+06 M⁻¹ s⁻¹. Also, the “C-terminal VD TNFα Neutralization Assay EC50 nM (L929 cells)” value in assay [4] amounted to 5.42 nM.

B7: AB217 (antibody, human IgG1, kappa, V domains shown)
VH: QVQLVESGGGVVQPGRSLRLSCAASGFTFSSYDMHWVRQAPGKGLEWVAVIWSDGSIKYYADSVKGRFTISRDNSKNTLYLQMNSLRAEDTAVYYCAREVESAMGGFYYNGMDVWGQGTTVTVSS
VL: DIQMTQSPSSLSASVGDRVTITCRASQGIRIDLGWYQQKPGKAPKRLIYAASTLQSGVPSRFSGSGSGTEFIFTISSLQPEDFASYYCLQHKSYPLTFGGGTKVEIKR
notes: Parent anti-TNF antibody; also called AB217VH
As for B7, in assay [1], the dissociation constant (Kd) was found to be 0.0272 nM, the koff was determined as 5.04e-05 s⁻¹ and the kon came out at 1.85e+06 M⁻¹ s⁻¹. Besides, in assay [4], the “TNFα Neutralization Assay EC50 nM (L929 cells)” value came out at 0.212 nM.

B8: DVD1226 (bispecific antibody, human IgG1, kappa)
heavy: not shown
light: DIVMTQSHKFMSTTVGDRVSITCKASQAVSSAVAWYQQKPGQSPKLLIYWASTRHTGVPDRFTGSGSVTDFTLTIHNLQAEDLALYYCQQHYSTPFTFGSGTKLEIKRTVAAPDVQMIQSPSSLSASLGDIVTMTCQASQGTSINLNWFQQKPGKAPKLLIYGSSNLEDGVPSRFSGSRYGTDFTLTISSLEDEDLATYFCLQHSYLPYTFGGGTKLEIKRTVAAPSVFIFPPSDEQLKSGTASVVCLLNNFYPREAKVQWKVDNALQSGNSQESVTEQDSKDSTYSLSSTLTLSKADYEKHKVYACEVTHQGLSSPVTKSFNRGEC
notes: constant regions from vectors V1/V2; also called DVD1226H; DVD1226L
Take B8: in assay [1], the Kd was determined as 0.0288 nM, the off-rate constant (koff) came to 0.000116 s⁻¹ and the kon came to 4.02e+06 M⁻¹ s⁻¹. In addition, in assay [5], the Kd was found to be 2.71 nM, the koff worked out at 0.000199 s⁻¹ and the kon amounted to 73400 M⁻¹ s⁻¹. Besides, the “N-terminal VD TNFα Neutralization Assay EC50 nM (L929 cells)” value in assay [4] was 0.0409 nM.

B9: DVD1227 (bispecific antibody, human IgG1, kappa)
heavy: not shown
light: DVQMIQSPSSLSASLGDIVTMTCQASQGTSINLNWFQQKPGKAPKLLIYGSSNLEDGVPSRFSGSRYGTDFTLTISSLEDEDLATYFCLQHSYLPYTFGGGTKLEIKRTVAAPDIVMTQSHKFMSTTVGDRVSITCKASQAVSSAVAWYQQKPGQSPKLLIYWASTRHTGVPDRFTGSGSVTDFTLTIHNLQAEDLALYYCQQHYSTPFTFGSGTKLEIKRTVAAPSVFIFPPSDEQLKSGTASVVCLLNNFYPREAKVQWKVDNALQSGNSQESVTEQDSKDSTYSLSSTLTLSKADYEKHKVYACEVTHQGLSSPVTKSFNRGEC
notes: constant regions from vectors V1/V2; also called DVD1227H; DVD1227L
Turning to B9, in assay [1], the Kd was found to be 0.381 nM, the off-rate constant (koff) was 4.64e-05 s⁻¹ and the kon is 122000 M⁻¹ s⁻¹. In assay [5], the dissociation constant (Kd) stood at 0.03 nM, the koff turned out to be 0.000211 s⁻¹ and the on-rate constant (kon) worked out at 7.05e+06 M⁻¹ s⁻¹. Besides, in assay [4], the “C-terminal VD TNFα Neutralization Assay EC50 nM (L929 cells)” value was 1.23 nM.
